Experiments:
Assay in all cases: holdup assay
Design in all cases: key: below the threshold = too weak to quantify, mostly under pKd 3.1 to 4
GRIP2_5, Q9C0E4 = biological target: GRIP2_5, Q9C0E4
SCRIB_2, Q14160 = biological target: SCRIB_2, Q14160
GRIP1_5, Q9Y3R0 = biological target: T1, GRIP1_5, Q9Y3R0
T1 sequence (Q9Y3R0 568-668, limits assumed, looked up): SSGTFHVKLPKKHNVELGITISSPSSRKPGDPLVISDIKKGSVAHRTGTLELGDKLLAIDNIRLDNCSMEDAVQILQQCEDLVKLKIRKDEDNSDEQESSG

PARD3_3, Q8TEW0 = biological target: PARD3_3, Q8TEW0
Chain of PARD3_3, Q8TEW0 (Q8TEW0 582-685): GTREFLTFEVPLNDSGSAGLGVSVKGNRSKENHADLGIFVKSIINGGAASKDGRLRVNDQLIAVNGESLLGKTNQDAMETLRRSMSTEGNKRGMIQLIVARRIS

FRMPD3, Q5JV73 = biological target: FRMPD3, Q5JV73
Chain of FRMPD3, Q5JV73 (Q5JV73 12-100): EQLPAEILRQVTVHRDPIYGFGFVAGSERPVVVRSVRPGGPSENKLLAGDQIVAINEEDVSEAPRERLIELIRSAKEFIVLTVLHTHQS

APBA1_1, Q02410 = biological target: T2, APBA1_1, Q02410
T2 sequence (Q02410 651-752, limits assumed, looked up): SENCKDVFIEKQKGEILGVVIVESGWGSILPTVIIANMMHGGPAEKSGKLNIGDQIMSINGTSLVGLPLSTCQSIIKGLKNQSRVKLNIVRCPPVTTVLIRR

LNX1_1, Q8TBB1 = biological target: LNX1_1, Q8TBB1
Chain of LNX1_1, Q8TBB1 (Q8TBB1 261-371): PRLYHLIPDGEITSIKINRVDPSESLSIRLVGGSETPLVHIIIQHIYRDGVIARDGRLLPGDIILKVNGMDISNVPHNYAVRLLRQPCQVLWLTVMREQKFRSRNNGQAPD

PDZD7_3, Q9H5P4 = biological target: T3, PDZD7_3, Q9H5P4
T3 sequence (Q9H5P4 857-944, limits assumed, looked up): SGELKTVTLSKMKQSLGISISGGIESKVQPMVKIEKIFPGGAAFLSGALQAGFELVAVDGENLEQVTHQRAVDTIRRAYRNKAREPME

APBA1_2, Q02410 = biological target: T4, APBA1_2, Q02410
T4 sequence (Q02410 742-832, limits assumed, looked up): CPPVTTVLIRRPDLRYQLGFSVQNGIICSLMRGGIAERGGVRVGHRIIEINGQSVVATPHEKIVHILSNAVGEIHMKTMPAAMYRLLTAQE

PDZRN3_1, Q9UPQ7 = biological target: T5, PDZRN3_1, Q9UPQ7
T5 sequence (Q9UPQ7 244-349, limits assumed, looked up): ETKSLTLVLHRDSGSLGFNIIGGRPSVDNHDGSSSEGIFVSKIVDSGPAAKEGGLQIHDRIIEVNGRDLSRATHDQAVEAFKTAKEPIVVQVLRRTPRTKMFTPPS

PARD3B_1, Q8TEW8 = biological target: T6, PARD3B_1, Q8TEW8
T6 sequence (Q8TEW8 196-299, limits assumed, looked up): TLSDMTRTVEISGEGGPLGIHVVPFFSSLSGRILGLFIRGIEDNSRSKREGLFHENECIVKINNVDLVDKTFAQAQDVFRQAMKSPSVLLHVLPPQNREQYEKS

TX1BP3, O14907 = biological target: T7, TX1BP3, O14907
T7 sequence (O14907 10-122, limits assumed, looked up): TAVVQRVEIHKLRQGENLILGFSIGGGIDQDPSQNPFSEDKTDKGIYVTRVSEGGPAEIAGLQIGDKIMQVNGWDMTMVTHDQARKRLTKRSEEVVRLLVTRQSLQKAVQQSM

DLG3_2, Q92796 = biological target: T8, DLG3_2, Q92796
T8 sequence (Q92796 221-321, limits assumed, looked up): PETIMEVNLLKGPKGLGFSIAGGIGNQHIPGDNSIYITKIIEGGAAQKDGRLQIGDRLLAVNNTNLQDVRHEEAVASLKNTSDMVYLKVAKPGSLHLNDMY

RAPGEF6, Q8TEU7 = biological target: T9, RAPGEF6, Q8TEU7
T9 sequence (Q8TEU7 525-625, limits assumed, looked up): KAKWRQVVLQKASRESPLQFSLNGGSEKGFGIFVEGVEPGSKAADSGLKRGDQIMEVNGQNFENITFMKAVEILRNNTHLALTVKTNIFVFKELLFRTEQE

DVL3, Q92997 = biological target: T10, DVL3, Q92997
T10 sequence (Q92997 244-331, limits assumed, looked up): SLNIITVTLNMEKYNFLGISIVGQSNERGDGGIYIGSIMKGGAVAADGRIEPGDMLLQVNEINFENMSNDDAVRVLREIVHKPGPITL

ARHGEF11, O15085 = biological target: T11, ARHGEF11, O15085
T11 sequence (O15085 42-136, limits assumed, looked up): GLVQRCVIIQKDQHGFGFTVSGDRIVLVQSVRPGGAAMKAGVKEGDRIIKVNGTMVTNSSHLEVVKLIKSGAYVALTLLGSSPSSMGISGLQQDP

GRIP1_3, Q9Y3R0 = biological target: T12, GRIP1_3, Q9Y3R0
T12 sequence (Q9Y3R0 247-346, limits assumed, looked up): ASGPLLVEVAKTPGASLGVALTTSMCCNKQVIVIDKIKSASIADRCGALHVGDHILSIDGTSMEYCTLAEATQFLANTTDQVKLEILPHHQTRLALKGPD

GRIP2_4, Q9C0E4 = biological target: GRIP2_4, Q9C0E4
Chain of GRIP2_4, Q9C0E4 (Q9C0E4 446-548): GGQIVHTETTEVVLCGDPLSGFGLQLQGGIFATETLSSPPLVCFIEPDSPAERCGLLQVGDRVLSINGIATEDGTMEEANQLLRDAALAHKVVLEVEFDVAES

GRASP, Q7Z6J2 = biological target: GRASP, Q7Z6J2
Chain of GRASP, Q7Z6J2 (Q7Z6J2 96-193): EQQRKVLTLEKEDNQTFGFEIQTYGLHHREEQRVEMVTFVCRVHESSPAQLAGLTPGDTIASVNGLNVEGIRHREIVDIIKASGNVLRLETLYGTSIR

LIN7B, Q9HAP6 = biological target: T13, LIN7B, Q9HAP6
T13 sequence (Q9HAP6 88-185, limits assumed, looked up): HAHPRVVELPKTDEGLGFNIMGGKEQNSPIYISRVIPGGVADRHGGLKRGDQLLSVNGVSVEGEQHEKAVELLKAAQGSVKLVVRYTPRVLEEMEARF

Inadl_4, Q8NI35 = biological target: Inadl_4, Q8NI35
Chain of Inadl_4, Q8NI35 (Q8NI35 547-651): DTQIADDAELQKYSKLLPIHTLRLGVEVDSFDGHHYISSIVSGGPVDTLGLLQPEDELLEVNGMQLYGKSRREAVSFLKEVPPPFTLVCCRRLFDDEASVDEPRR

SNTG2, Q9NY99 = biological target: T14, SNTG2, Q9NY99
T14 sequence (Q9NY99 68-166, limits assumed, looked up): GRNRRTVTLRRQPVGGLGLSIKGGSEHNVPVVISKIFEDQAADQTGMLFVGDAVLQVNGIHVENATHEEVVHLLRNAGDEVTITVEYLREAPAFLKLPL

LNX1_3, Q8TBB1 = biological target: LNX1_3, Q8TBB1
Chain of LNX1_3, Q8TBB1 (Q8TBB1 500-596): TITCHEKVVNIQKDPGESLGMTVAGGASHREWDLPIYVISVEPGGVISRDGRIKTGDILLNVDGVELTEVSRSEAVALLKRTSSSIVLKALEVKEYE

[1] = plain residues with an end cap or a label only (N-terminal biotin on a linker: ttds)
[2] = plain residues with an end cap or a label only (N-terminal biotin on a linker: ado-ado)

Chain of GRIP2_5, Q9C0E4 (Q9C0E4 544-642): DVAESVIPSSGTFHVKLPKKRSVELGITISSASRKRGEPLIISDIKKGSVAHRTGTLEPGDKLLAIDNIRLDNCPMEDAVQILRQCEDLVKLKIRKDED
Chain of SCRIB_2, Q14160 (Q14160 857-960): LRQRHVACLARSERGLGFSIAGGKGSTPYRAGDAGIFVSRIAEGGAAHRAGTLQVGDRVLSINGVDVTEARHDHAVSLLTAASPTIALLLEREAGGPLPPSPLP

B1: RASSF6, Q6ZTQ3 (peptide)
chain: KLVIKTETTV
pKd (GRIP2_5, Q9C0E4; [1]): below the threshold | pKd (SCRIB_2, Q14160; [1]): 3.95 | pKd (GRIP1_5, Q9Y3R0; [1]): below the threshold | pKd (PARD3_3, Q8TEW0; [1]): below the threshold | pKd (FRMPD3, Q5JV73; [1]): below the threshold | pKd (APBA1_1, Q02410; [1]): below the threshold | pKd (LNX1_1, Q8TBB1; [1]): below the threshold | pKd (PDZD7_3, Q9H5P4; [1]): 4.39 | pKd (APBA1_2, Q02410; [1]): below the threshold | pKd (PDZRN3_1, Q9UPQ7; [1]): 3.82 | pKd (PARD3B_1, Q8TEW8; [1]): below the threshold | pKd (TX1BP3, O14907; [1]): 3.72 | pKd (DLG3_2, Q92796; [1]): 5.53 | pKd (RAPGEF6, Q8TEU7; [1]): 3.46 | pKd (DVL3, Q92997; [1]): below the threshold | pKd (ARHGEF11, O15085; [1]): 3.91 | pKd (GRIP1_3, Q9Y3R0; [1]): below the threshold | pKd (GRIP2_4, Q9C0E4; [1]): below the threshold | pKd (GRASP, Q7Z6J2; [1]): 3.51 | pKd (LIN7B, Q9HAP6; [1]): 3.81 | pKd (Inadl_4, Q8NI35; [1]): below the threshold | pKd (SNTG2, Q9NY99; [1]): 3.99 | pKd (LNX1_3, Q8TBB1; [1]): below the threshold

B2: FZD7, O75084 (peptide)
chain: SHSSKGETAV
pKd (GRIP2_5, Q9C0E4; [1]): below the threshold | pKd (SCRIB_2, Q14160; [1]): 4.58 | pKd (GRIP1_5, Q9Y3R0; [1]): below the threshold | pKd (PARD3_3, Q8TEW0; [1]): below the threshold | pKd (FRMPD3, Q5JV73; [1]): below the threshold | pKd (APBA1_1, Q02410; [1]): below the threshold | pKd (LNX1_1, Q8TBB1; [1]): below the threshold | pKd (PDZD7_3, Q9H5P4; [1]): 3.86 | pKd (APBA1_2, Q02410; [1]): 3.8 | pKd (PDZRN3_1, Q9UPQ7; [1]): 4.51 | pKd (PARD3B_1, Q8TEW8; [1]): 3.52 | pKd (TX1BP3, O14907; [1]): 3.89 | pKd (DLG3_2, Q92796; [1]): 4.53 | pKd (RAPGEF6, Q8TEU7; [1]): below the threshold | pKd (DVL3, Q92997; [1]): below the threshold | pKd (ARHGEF11, O15085; [1]): 4.3 | pKd (GRIP1_3, Q9Y3R0; [1]): below the threshold | pKd (GRIP2_4, Q9C0E4; [1]): below the threshold | pKd (GRASP, Q7Z6J2; [1]): 3.45 | pKd (LIN7B, Q9HAP6; [1]): below the threshold | pKd (Inadl_4, Q8NI35; [1]): below the threshold | pKd (SNTG2, Q9NY99; [1]): below the threshold | pKd (LNX1_3, Q8TBB1; [1]): below the threshold

B3: FMNL3, Q8IVF7 (peptide)
chain: DAAHHDESNC
pKd (GRIP2_5, Q9C0E4; [2]): below the threshold | pKd (SCRIB_2, Q14160; [2]): below the threshold | pKd (GRIP1_5, Q9Y3R0; [2]): below the threshold | pKd (PARD3_3, Q8TEW0; [2]): below the threshold | pKd (FRMPD3, Q5JV73; [2]): below the threshold | pKd (APBA1_1, Q02410; [2]): below the threshold | pKd (LNX1_1, Q8TBB1; [2]): below the threshold | pKd (PDZD7_3, Q9H5P4; [2]): below the threshold | pKd (APBA1_2, Q02410; [2]): below the threshold | pKd (PDZRN3_1, Q9UPQ7; [2]): below the threshold | pKd (PARD3B_1, Q8TEW8; [2]): below the threshold | pKd (TX1BP3, O14907; [2]): below the threshold | pKd (DLG3_2, Q92796; [2]): 4.09 | pKd (RAPGEF6, Q8TEU7; [2]): below the threshold | pKd (DVL3, Q92997; [2]): below the threshold | pKd (ARHGEF11, O15085; [2]): below the threshold | pKd (GRIP1_3, Q9Y3R0; [2]): below the threshold | pKd (GRIP2_4, Q9C0E4; [2]): below the threshold | pKd (GRASP, Q7Z6J2; [2]): below the threshold | pKd (LIN7B, Q9HAP6; [2]): below the threshold | pKd (Inadl_4, Q8NI35; [2]): below the threshold | pKd (SNTG2, Q9NY99; [2]): below the threshold | pKd (LNX1_3, Q8TBB1; [2]): below the threshold

— PMC9482650, “Quantitative fragmentomics allow affinity mapping of interactomes” (Nature Communications, 2022)
